{"source": "paper PMC11708914", "key": {"[1]": {"target": "Recombinant His-tagged ZIKV NS5 (Zika virus)", "assay": "pull-down; Ni-NTA agarose resin; 3 mg of whole-cell protein from 293 T cells incubated with 90 µg of recombinant His-tagged bait (BSA as control); UBA1 detected by Western blot"}, "[2]": {"target": "WNV HA-NS5 (HA-tagged West Nile virus NS5) (West Nile virus) (UniProt P06935)", "sequence (P06935 2526-3430)": "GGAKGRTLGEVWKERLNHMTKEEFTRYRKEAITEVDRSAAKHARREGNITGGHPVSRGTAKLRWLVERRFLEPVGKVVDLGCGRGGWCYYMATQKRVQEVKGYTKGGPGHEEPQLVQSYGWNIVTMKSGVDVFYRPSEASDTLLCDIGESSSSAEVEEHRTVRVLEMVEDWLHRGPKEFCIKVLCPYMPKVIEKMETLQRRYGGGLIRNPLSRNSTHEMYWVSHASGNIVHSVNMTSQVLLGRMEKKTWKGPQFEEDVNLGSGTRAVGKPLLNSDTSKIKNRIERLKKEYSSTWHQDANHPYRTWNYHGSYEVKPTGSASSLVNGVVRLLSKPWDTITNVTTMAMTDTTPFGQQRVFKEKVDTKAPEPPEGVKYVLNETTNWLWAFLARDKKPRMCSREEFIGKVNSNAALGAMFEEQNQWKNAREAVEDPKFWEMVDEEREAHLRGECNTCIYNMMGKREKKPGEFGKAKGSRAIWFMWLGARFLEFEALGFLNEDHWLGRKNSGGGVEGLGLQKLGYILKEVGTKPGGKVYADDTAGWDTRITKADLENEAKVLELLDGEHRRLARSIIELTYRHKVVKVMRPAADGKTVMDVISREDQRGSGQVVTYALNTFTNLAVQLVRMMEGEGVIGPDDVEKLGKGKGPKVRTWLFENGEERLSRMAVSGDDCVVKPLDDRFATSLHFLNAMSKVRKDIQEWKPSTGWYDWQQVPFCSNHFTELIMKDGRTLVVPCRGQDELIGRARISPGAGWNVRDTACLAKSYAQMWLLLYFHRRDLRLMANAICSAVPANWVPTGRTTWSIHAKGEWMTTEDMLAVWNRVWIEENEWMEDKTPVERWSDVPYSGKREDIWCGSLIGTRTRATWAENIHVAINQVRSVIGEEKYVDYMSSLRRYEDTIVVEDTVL", "assay": "co-IP; anti-HA agarose beads; lysates of transfected 293 T cells (lysis buffer with protease inhibitors and benzonase), overnight at 4 °C; UBA1 detected by Western blot"}, "[3]": {"target": "ZIKV HA-NS5 (full-length Zika virus NS5 fused to an HA-tag in its N-terminus) (Zika virus)", "assay": "co-IP; anti-HA agarose beads; lysates of transfected 293 T cells (lysis buffer with protease inhibitors and benzonase), overnight at 4 °C; UBA1 detected by Western blot"}, "[4]": {"target": "USUV HA-NS5 (HA-tagged Usutu virus NS5) (Usutu virus) (UniProt Q5WPU5)", "sequence (Q5WPU5 2530-3434)": "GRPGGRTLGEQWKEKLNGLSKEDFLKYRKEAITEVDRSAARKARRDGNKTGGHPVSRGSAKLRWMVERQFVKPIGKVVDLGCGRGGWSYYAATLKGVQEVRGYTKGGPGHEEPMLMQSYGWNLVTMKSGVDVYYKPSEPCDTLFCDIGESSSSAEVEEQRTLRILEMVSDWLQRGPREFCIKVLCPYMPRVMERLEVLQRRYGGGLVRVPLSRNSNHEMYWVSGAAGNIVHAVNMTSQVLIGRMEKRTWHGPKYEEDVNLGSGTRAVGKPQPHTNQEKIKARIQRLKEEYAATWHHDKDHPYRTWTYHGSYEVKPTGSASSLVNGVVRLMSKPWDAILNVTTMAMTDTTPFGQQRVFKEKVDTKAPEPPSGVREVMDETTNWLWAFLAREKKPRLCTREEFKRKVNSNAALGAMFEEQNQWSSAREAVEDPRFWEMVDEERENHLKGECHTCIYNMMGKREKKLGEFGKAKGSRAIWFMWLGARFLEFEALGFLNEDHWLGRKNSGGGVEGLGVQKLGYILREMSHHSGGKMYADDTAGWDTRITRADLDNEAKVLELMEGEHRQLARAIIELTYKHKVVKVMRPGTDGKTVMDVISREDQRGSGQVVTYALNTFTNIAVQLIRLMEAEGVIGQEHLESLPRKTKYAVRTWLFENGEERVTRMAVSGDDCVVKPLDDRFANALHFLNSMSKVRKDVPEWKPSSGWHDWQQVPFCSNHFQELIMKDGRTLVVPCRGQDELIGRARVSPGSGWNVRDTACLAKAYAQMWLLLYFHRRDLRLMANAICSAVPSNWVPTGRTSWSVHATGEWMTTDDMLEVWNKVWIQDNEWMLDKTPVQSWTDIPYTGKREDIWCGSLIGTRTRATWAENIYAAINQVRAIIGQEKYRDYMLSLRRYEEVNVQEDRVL", "assay": "co-IP; anti-HA agarose beads; lysates of transfected 293 T cells (lysis buffer with protease inhibitors and benzonase), overnight at 4 °C; UBA1 detected by Western blot"}}, "data": [{"substance": "Ubiquitin-like modifier-activating enzyme 1 (UBA1), endogenous", "values": [{"measurement": "amount of UBA1 relative to controls", "setting": "[1]", "result": "> 4", "unit": "times"}, {"measurement": "fold enrichment over controls", "setting": "[2]", "result": "> 100", "unit": "fold"}, {"measurement": "fold enrichment over controls (empty vector or EYFP)", "setting": "[3]", "result": "> 100", "unit": "fold"}, {"measurement": "fold enrichment over controls", "setting": "[4]", "result": "> 100", "unit": "fold"}]}]}
